In publication PMC6743029:

Assay: Western blot, Huh7.5.1 lysates, 16 h
Conditions: glycan lost; control: untreated

B1: SR-BI (scavenger receptor class B, type I): tunicamycin (protein)
parent chain: MGCSAKARWAAGALGVAGLLCAVLGAVMIVMVPSLIKQQVLKNVRIDPSSLSFNMWKEIPIPFYLSVYFFDVMNPSEILKGEKPQVRERGPYVYREFRHKSNITFNNNDTVSFLEYRTFQFQPSKSHGSESDYIVMPNILVLGAAVMMENKPMTLKLIMTLAFTTLGERAFMNRTVGEIMWGYKDPLVNLINKYFPGMFPFKDKFGLFAELNNSDSGLFTVFTGVQNISRIHLVDKWNGLSKVDFWHSDQCNMINGTSGQMWPPFMTPESSLEFYSPEACRSMKLMYKESGVFEGIPTYRFVAPKTLFANGSIYPPNEGFCPCLESGIQNVSTCRFSAPLFLSHPHFLNADPVLAEAVTGLHPNQEAHSLFLDIHPVTGIPMNCSVKLQLSLYMKSVAGIGQTGKIEPVVLPLLWFAESGAMEGETLHTFYTQLVLMPKVMHYAQYVLLALGCVLLLVPVICQIRSQVGAGQRAARADSHSLACWGKGASDRTLWPTAAWSPPPAAVLRLCRSGSGHCWGLRSTLASFACRVATTLPVLEGLGPSLGGGTGS
expression_or_secretion: decreases
